± gives the standard deviation of the averaged measurements.
B1: library; a variant is named by its letters at N, in order (parent)
chain: GCUGUCACCGGAAUACCAGCAUCGUCUUGAUGCCCUUGGAAGUCCGGUCUGAUGAGUCCNNNNNGGACGAAACAGC

Assays:
[1] = variants of: B1; test: FACS-Seq fitted mean relative fluorescence mCherry/BFP without ligand (log10 relative fluorescence); higher = higher reporter protein expression; conditions: HEK293T, ligand present: no
Summary of the method: (§1)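 Fluorescence values are fitted normal means of bin counts along the mCherry/BFP axis. HEK293T libraries lentivirally carrying the ribozyme switch in an mCherry reporter, with an EF1α-BFP marker, were enriched, exposed to ligand or not for 48 h, and sorted into 6 bins. Genomic DNA per bin was PCR-amplified, barcoded and run on MiSeq. Means of log10(mCherry/BFP) were scaled to five spiked-in control ribozymes.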

[2] = variants of: B1; test: normalized RNA/DNA level with ligand (relative to sTRSVctl = 100) (log10 (% of sTRSVctl)); higher = less ribozyme self-cleavage, higher mRNA level; conditions: ligand concentration (+) RNA-Seq: 5 mM, HEK293T, reporter: mCherry (pCS4076), ligand present: yes
Summary of the method: (§2)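 Ribozyme switch library plasmids linked to reporters were introduced into HEK293T cells at 4 µg per 6-well well, with ligand, if any, added 1 h before. Total RNA was extracted with EDTA 72 h later, reverse-transcribed, amplified, barcoded and sequenced. RNA level was computed from RNA over DNA reads relative to a spiked-in non-cleaving sequence or the top sequences, then scaled and log-transformed. The top set was 25 sequences, values were ×100 and log10, and the cutoff was ≥100 DNA reads.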

[3] = variants of: B1; test: normalized RNA/DNA level without ligand (relative to sTRSVctl = 100) (log10 (% of sTRSVctl)); higher = less ribozyme self-cleavage, higher mRNA level; conditions: HEK293T, reporter: mCherry (pCS4076), ligand present: no
Summary of the method: as §2

[4] = variants of: B1; test: FACS-Seq fitted mean relative fluorescence mCherry/BFP with ligand (log10 relative fluorescence); ligand concentration (+) FACS-Seq: 1 mM; higher = higher reporter protein expression; conditions: HEK293T, ligand present: yes
Summary of the method: as §1

Variant | FACS-Seq fitted mean (log10) [1] | normalized RNA/DNA level with ligand (log10) [2] | normalized RNA/DNA level without ligand (log10) [3] | FACS-Seq fitted mean (log10) [4]
CUCGA | 0.868 ± 0.018 | 2.04 ± 0.076 | 1.95 ± 0.12 | 0.883 ± 0.1
AACUA | 0.84 ± 0.078 | 2.01 ± 0.045 | 1.77 ± 0.053 | 1 ± 0.015
UCAAG | 0.7373 ± 0.0072 | 2.034 ± 0.0095 | 1.79 ± 0.16 | 0.974 ± 0.053
CAAGC | 0.66 ± 0.031 | 1.96 ± 0.064 | 1.99 ± 0.079 | 0.543 ± 0.046
UCUAA | 0.476 ± 0.055 | 2.03 ± 0.14 | 1.68 ± 0.095 | 0.588 ± 0.039
CGGAC | 0.877 ± 0.081 | 1.93 ± 0.024 | 1.8 ± 0.087 | 0.793 ± 0.037
CUAUU | 0.965 ± 0.18 | 2.03 ± 0.023 | 1.85 ± 0.1 | 0.924 ± 0.012
UAUCC | 0.705 ± 0.11 | 2.007 ± 0.016 | 2.02 ± 0.14 | 0.572 ± 0.019
CGCAA | 0.17 ± 0.043 | 1.888 ± 0.006 | 1.49 ± 0.074 | 0.271 ± 0.06
UGACG | 0.444 ± 0.13 | 1.977 ± 0.0053 | 1.89 ± 0.031 | 0.53 ± 0.076
AACUU | 1.01 ± 0.076 | 1.9847 ± 0.0011 | 1.89 ± 0.059 | 0.981 ± 0.015
AGGUA | 0.987 ± 0.032 | 1.979 ± 0.0062 | 1.66 ± 0.04 | 1.26 ± 0.14
UGCCA | 0.592 ± 0.11 | 1.9 ± 0.096 | 1.82 ± 0.068 | 0.481 ± 0.044
GAUGC | 0.964 ± 0.13 | 1.98 ± 0.029 | 1.88 ± 0.098 | 1.05 ± 0.072
CCCGU | 0.812 ± 0.08 | 1.91 ± 0.23 | 1.894 ± 0.014 | 0.82 ± 0.087
UAUAA | 0.194 ± 0.045 | 2.02 ± 0.052 | 1.47 ± 0.088 | 0.511 ± 0.038
UCCAC | 0.712 ± 0.067 | 2.05 ± 0.04 | 1.95 ± 0.12 | 0.737 ± 0.036
ACGCC | 1.08 ± 0.17 | 1.95 ± 0.074 | 1.94 ± 0.19 | 0.984 ± 0.017
AAUGC | 0.537 ± 0.0095 | 2 ± 0.06 | 1.89 ± 0.025 | 0.692 ± 0.11
CAAAA | 0.173 ± 0.019 | 1.95 ± 0.029 | 1.31 ± 0.062 | 0.67 ± 0.071
CUCUA | 0.786 ± 0.075 | 2.05 ± 0.018 | 1.78 ± 0.063 | 0.994 ± 0.09
AAUGA | 0.467 ± 0.024 | 1.964 ± 0.0034 | 1.46 ± 0.08 | 0.691 ± 0.086
CCCGC | 1.3 ± 0.15 | 2.02 ± 0.021 | 2.088 ± 0.019 | 1.05 ± 0.028
UGAAU | 0.471 ± 0.056 | 1.94 ± 0.057 | 1.77 ± 0.15 | 0.732 ± 0.045

Variant | FACS-Seq fitted mean (log10) [1] | normalized RNA/DNA level with ligand (log10) [2] | normalized RNA/DNA level without ligand (log10) [3] | FACS-Seq fitted mean (log10) [4]
UUUAU | 0.444 ± 0.021 | 2.0202 ± 0.001 | 1.93 ± 0.06 | 0.417 ± 0.012
UGAUA | 0.3741 ± 0.0021 | 1.955 ± 0.0019 | 1.42 ± 0.17 | 0.789 ± 0.084
CGAUU | 0.31 ± 0.2 | 1.98 ± 0.13 | 1.51 ± 0.15 | 0.579 ± 0.022
UCCUC | 0.414 ± 0.042 | 2.03 ± 0.022 | 2.022 ± 0.015 | 0.566 ± 0.064
UGGAC | 0.19 ± 0.013 | 2 ± 0.049 | 1.93 ± 0.056 | 0.236 ± 0.01
UCCUG | 0.994 ± 0.063 | 2.02 ± 0.1 | 1.99 ± 0.037 | 0.905 ± 0.0097
CCGUC | 0.556 ± 0.018 | 2.11 ± 0.037 | 1.93 ± 0.073 | 0.413 ± 0.034
GAAGU | 0.25 ± 0.013 | 1.94 ± 0.12 | 1.68 ± 0.17 | 0.483 ± 0.031
AAGCU | 0.983 ± 0.1 | 2.05 ± 0.094 | 1.78 ± 0.077 | 1.11 ± 0.11
ACAGU | 0.512 ± 0.024 | 1.94 ± 0.057 | 1.65 ± 0.095 | 0.73 ± 0.011
AAAUA | 0.6481 ± 0.0057 | 1.99 ± 0.038 | 1.62 ± 0.16 | 0.806 ± 0.062
UAACU | 0.803 ± 0.036 | 2 ± 0.14 | 1.89 ± 0.02 | 0.716 ± 0.1
GAAAG | 1.046 ± 0.0068 | 1.96 ± 0.022 | 1.66 ± 0.044 | 1.08 ± 0.14
AUAAG | 0.547 ± 0.16 | 1.97 ± 0.17 | 1.79 ± 0.082 | 0.578 ± 0.014
AGUAC | 0.729 ± 0.04 | 1.997 ± 0.019 | 1.83 ± 0.068 | 0.749 ± 0.072
ACCCG | 0.917 ± 0.11 | 2 ± 0.012 | 1.94 ± 0.12 | 0.973 ± 0.031
UACAU | 0.684 ± 0.015 | 2.03 ± 0.17 | 1.91 ± 0.14 | 0.722 ± 0.0088
GUAAU | 0.914 ± 0.062 | 1.937 ± 0.015 | 1.82 ± 0.085 | 0.966 ± 0.16
CGUUU | 0.252 ± 0.084 | 2.06 ± 0.11 | 1.53 ± 0.077 | 0.945 ± 0.041
UUUGA | 0.62 ± 0.055 | 2.09 ± 0.097 | 1.94 ± 0.021 | 0.856 ± 0.079
UGCGU | 0.83 ± 0.044 | 1.97 ± 0.088 | 1.923 ± 0.018 | 0.761 ± 0.07
UAGAG | 0.823 ± 0.13 | 1.94 ± 0.063 | 1.73 ± 0.093 | 0.842 ± 0.013
AAGGU | 0.228 ± 0.0068 | 1.94 ± 0.047 | 1.72 ± 0.044 | 0.445 ± 0.067
AGGCA | 0.779 ± 0.085 | 1.99 ± 0.039 | 1.79 ± 0.057 | 0.896 ± 0.1

Variant | FACS-Seq fitted mean (log10) [1] | normalized RNA/DNA level with ligand (log10) [2] | normalized RNA/DNA level without ligand (log10) [3] | FACS-Seq fitted mean (log10) [4]
GAGCG | 0.793 ± 0.054 | 1.94 ± 0.066 | 1.79 ± 0.033 | 0.81 ± 0.05
CCACU | 0.682 ± 0.012 | 2.01 ± 0.059 | 1.76 ± 0.16 | 0.818 ± 0.014
AAAAU | 0.464 ± 0.031 | 2.02 ± 0.028 | 1.68 ± 0.028 | 0.572 ± 0.045
AGUGC | 0.289 ± 0.03 | 2.01 ± 0.0061 | 1.87 ± 0.071 | 0.297 ± 0.058
GAGCU | 0.479 ± 0.21 | 1.96 ± 0.14 | 1.8 ± 0.11 | 0.5269 ± 0.0042
AAGAG | 0.563 ± 0.11 | 1.97 ± 0.099 | 1.67 ± 0.089 | 0.728 ± 0.02
UUACG | 1.08 ± 0.025 | 2.019 ± 0.0074 | 1.93 ± 0.029 | 1.02 ± 0.027
UUGAU | 0.68 ± 0.041 | 2.06 ± 0.1 | 1.82 ± 0.044 | 0.708 ± 0.03
CGGAA | -0.0214 ± 0.074 | 1.9 ± 0.055 | 1.25 ± 0.17 | 0.354 ± 0.0054
ACGGU | 0.778 ± 0.062 | 1.89 ± 0.13 | 1.7 ± 0.095 | 1.004 ± 0.0021
UCAGA | 0.377 ± 0.081 | 1.96 ± 0.099 | 1.55 ± 0.13 | 0.6274 ± 0.0049
CCCAC | 0.775 ± 0.051 | 1.975 ± 0.011 | 1.95 ± 0.061 | 0.711 ± 0.051
GAGAU | 0.787 ± 0.038 | 1.97 ± 0.038 | 1.73 ± 0.074 | 0.958 ± 0.062
CUUUC | 1.07 ± 0.048 | 2.07 ± 0.067 | 2 ± 0.092 | 0.998 ± 0.19
ACGUG | 0.7349 ± 0.0044 | 1.99 ± 0.14 | 1.76 ± 0.033 | 0.974 ± 0.16
UACAG | 1.02 ± 0.041 | 1.96 ± 0.051 | 1.908 ± 0.018 | 0.918 ± 0.052
ACACA | 0.454 ± 0.049 | 1.94 ± 0.051 | 1.77 ± 0.036 | 0.653 ± 0.055
AGAAC | 0.387 ± 0.005 | 1.9164 ± 0.00023 | 1.78 ± 0.12 | 0.507 ± 0.016
UAAAC | 0.86 ± 0.034 | 1.978 ± 0.013 | 1.91 ± 0.096 | 0.924 ± 0.042
CUAAA | 0.216 ± 0.045 | 2.02 ± 0.035 | 1.5 ± 0.14 | 0.454 ± 0.068
UUAAA | 0.111 ± 0.099 | 1.895 ± 0.0096 | 1.26 ± 0.013 | 0.545 ± 0.078
ACGGA | 0.425 ± 0.14 | 1.95 ± 0.02 | 1.66 ± 0.073 | 0.602 ± 0.1
UGGUC | 0.57045 ± 0.00034 | 1.984 ± 0.0062 | 1.95 ± 0.12 | 0.356 ± 0.084
AUAAA | 0.196 ± 0.0089 | 1.99 ± 0.037 | 1.4 ± 0.12 | 0.487 ± 0.033

Source: the supplement of paper PMC6757056
